Source: the Human Domainome abundance scans (Beltran et al. 2025)
± gives the uncertainty stated by the source.

B1: Transcription elongation factor A N-terminal and central domain-containing protein, residues 30 to 77; numbered along this chain, Q8N8B7 (parent)
chain: LTELETIYVTKEHLQETDVVRAVYRVLKNCPSVALKKKAKCLLSKWKA
B2: Chromodomain-helicase-DNA-binding protein 4, residues 365 to 417; numbered along this chain, Q14839 (parent)
chain: YETDHQDYCEVCQQGGEIILCDTCPRAYHMVCLDPDMEKAPEGKWSCPHCEKE

Variants of: B1
Test: abundance fitness (aPCA) (normalised: wild type 0, dead -1); higher = more abundant; growth selection in yeast, the domain comes from the species named
Settings: Homo sapiens

| Variant | abundance fitness |
| --- | --- |
| LTELETIYVTKEHLQETDVVRAVYRVLKNYPSVALKKKAKCLLSKWKA [C30Y] | -0.632 ± 0.1 |
| LTELETIYVTKEHLQETDVVRAVYRVLKNQPSVALKKKAKCLLSKWKA [C30Q] | -0.189 ± 0.12 |
| LTELETIYVTKEHLQETDVVRAVYRVLKNEPSVALKKKAKCLLSKWKA [C30E] | -0.935 ± 0.17 |
| LTELETIYVTKEHLQETDVVRAVYRVLKNCPSVALKKKAKCLLSDWKA [K45D] | -0.443 ± 0.16 |
| LTELETIYVTKEHLQETDVVRAVYRVLKNCPSVALKKKAKCLLSRWKA [K45R] | -0.123 ± 0.11 |
| LTELETIYVTKEHLQETDVVRAVYRVLKNCPSVALKKKAKCLLSAWKA [K45A] | -0.57 ± 0.11 |
| LTELETIYVTKEHLQETDVVRAVYRVLKNCPSVALKKKAKCLLSYWKA [K45Y] | -0.1 ± 0.21 |
| LTELETIYVTKEHLQETDVVRAVHRVLKNCPSVALKKKAKCLLSKWKA [Y24H] | -0.468 ± 0.16 |
| LTELETNYVTKEHLQETDVVRAVYRVLKNCPSVALKKKAKCLLSKWKA [I7N] | 0.081 ± 0.16 |
| LTELETSYVTKEHLQETDVVRAVYRVLKNCPSVALKKKAKCLLSKWKA [I7S] | 0.147 ± 0.087 |
| LTELETYYVTKEHLQETDVVRAVYRVLKNCPSVALKKKAKCLLSKWKA [I7Y] | -0.422 ± 0.21 |
| LTELETIYVTKEHLYETDVVRAVYRVLKNCPSVALKKKAKCLLSKWKA [Q15Y] | -0.562 ± 0.18 |
| LTELETIYVTKEHLWETDVVRAVYRVLKNCPSVALKKKAKCLLSKWKA [Q15W] | 0.069 ± 0.096 |
| LTELETIYVTKEHLQETDVVRAVYRVLKNCPSVALKKKAKCCLSKWKA [L42C] | -0.839 ± 0.36 |
| LTELETIYVTKEHLQETDVVRAVYRVLKNCPSVALKKKAKCWLSKWKA [L42W] | -0.026 ± 0.098 |
| LTELETIYVTKEHLQETDVVRAVYRVLKNCPSVALKKTAKCLLSKWKA [K38T] | -0.11 ± 0.24 |
| LTELETIYVTKEHLQETDVVRAVYRVLKNCPSVALKKNAKCLLSKWKA [K38N] | 0.201 ± 0.41 |
| LTELETIYVTKEHLQETDVVRAVYRVLKNCPSVALKKFAKCLLSKWKA [K38F] | -0.193 ± 0.31 |
| LTELETIYVTKEHLQETDVVRAVYRVLKVCPSVALKKKAKCLLSKWKA [N29V] | -0.186 ± 0.075 |
| LTELETIYVTKEHLQETDVVRAVYRVLKQCPSVALKKKAKCLLSKWKA [N29Q] | -0.259 ± 0.15 |
| LTELETIYVTKEHLQETDVVRAVYRVLKTCPSVALKKKAKCLLSKWKA [N29T] | 0.024 ± 0.11 |
| LTELETIYVTKEHLQETDVVRAVYRVLKECPSVALKKKAKCLLSKWKA [N29E] | -0.536 ± 0.12 |
| LTELETIYVTKEHLQETDVVRAVYRVLKLCPSVALKKKAKCLLSKWKA [N29L] | 0.004 ± 0.076 |
| LTELETIYVTKEHLQETDVVGAVYRVLKNCPSVALKKKAKCLLSKWKA [R21G] | -0.042 ± 0.076 |
| LTELETIYVTKEHLQETDVVVAVYRVLKNCPSVALKKKAKCLLSKWKA [R21V] | -0.904 ± 0.15 |
| LTELETIYVTKEHLQETDVVFAVYRVLKNCPSVALKKKAKCLLSKWKA [R21F] | -0.914 ± 0.42 |
| LTELETIYVTKEHLQETDVVRAVYNVLKNCPSVALKKKAKCLLSKWKA [R25N] | -0.091 ± 0.13 |

| Variant | abundance fitness |
| --- | --- |
| LTELETIYVTKEHLQETDVVRAVYTVLKNCPSVALKKKAKCLLSKWKA [R25T] | -0.528 ± 0.13 |
| LTELETIYVTKEHPQETDVVRAVYRVLKNCPSVALKKKAKCLLSKWKA [L14P] | -0.049 ± 0.12 |
| LTELETIYVTKEHLQETDVVRAVYRVLKNCPSVALKKKAKCLLSKQKA [W46Q] | -0.792 ± 0.23 |
| LTELETIYVTKEHLQETDVVRAVYRVLKNCPSVVLKKKAKCLLSKWKA [A34V] | -0.489 ± 0.096 |
| LTELETIYVTKEHLQETDVVRAVYRVLKNCPSVNLKKKAKCLLSKWKA [A34N] | 0.266 ± 0.17 |
| LTELETIYVTKEHLQETDVVRAVYRVLKNCPSVDLKKKAKCLLSKWKA [A34D] | 0.097 ± 0.13 |
| LTELETIYVTKEHLQETDVVRAVYRVLKNCPSVILKKKAKCLLSKWKA [A34I] | -0.826 ± 0.35 |
| LDELETIYVTKEHLQETDVVRAVYRVLKNCPSVALKKKAKCLLSKWKA [T2D] | 0.107 ± 0.17 |
| LQELETIYVTKEHLQETDVVRAVYRVLKNCPSVALKKKAKCLLSKWKA [T2Q] | -0.177 ± 0.11 |
| LWELETIYVTKEHLQETDVVRAVYRVLKNCPSVALKKKAKCLLSKWKA [T2W] | -0.711 ± 0.18 |
| LKELETIYVTKEHLQETDVVRAVYRVLKNCPSVALKKKAKCLLSKWKA [T2K] | 0.11 ± 0.12 |
| LEELETIYVTKEHLQETDVVRAVYRVLKNCPSVALKKKAKCLLSKWKA [T2E] | 0.27 ± 0.12 |
| LCELETIYVTKEHLQETDVVRAVYRVLKNCPSVALKKKAKCLLSKWKA [T2C] | -0.501 ± 0.18 |
| LTELETIYVTKEHLQEIDVVRAVYRVLKNCPSVALKKKAKCLLSKWKA [T17I] | -0.654 ± 0.15 |
| LTELETIYVTKEHLQEKDVVRAVYRVLKNCPSVALKKKAKCLLSKWKA [T17K] | -0.14 ± 0.14 |
| LTELETIYVTKEHLQETDVVRAVYRVLKNCPSVALKKKAKCLLSKWMA [K47M] | -0.252 ± 0.14 |
| LTELETIYVTKEHLQETDVVRAVYRVLKNCPSVALKHKAKCLLSKWKA [K37H] | -0.609 ± 0.19 |
| LTELETIYVTKEHLQETDVVRAVYRVLKNCPSVALKRKAKCLLSKWKA [K37R] | 0.023 ± 0.065 |
| LTELETIYVTKEHLQETDVVRAVYRVLKNCPSVALKPKAKCLLSKWKA [K37P] | -1.02 ± 0.15 |
| LTELETIYVTKEHLQETDVVRAVYRVLKNCPSVALKQKAKCLLSKWKA [K37Q] | -0.553 ± 0.17 |
| LTELETIYVTKEHLQETDVVRAVYRVLKNCPTVALKKKAKCLLSKWKA [S32T] | -0.022 ± 0.094 |
| LTELETIYVTKEHLQETDVVRAVYRVLKNCPPVALKKKAKCLLSKWKA [S32P] | 0.039 ± 0.1 |
| LTELETIYVTKEHLQETDVVRAVYRVLKNCPSVALKKKAKCLLMKWKA [S44M] | -0.148 ± 0.15 |
| LTELETIYVTKEHLQETDVVRAVYRVLKNCPSVALKKKAKLLLSKWKA [C41L] | 0.047 ± 0.097 |
| LTELETIYVTKEHLQETDVVRAVYRVLKNCPSVALKKKAKQLLSKWKA [C41Q] | 0.293 ± 0.14 |
| LTELETIYVTKEHLQETDVVRAVYRVLKNCPSVALKKKAKMLLSKWKA [C41M] | -0.232 ± 0.18 |

Variants of: B2
Test: as above
Settings: Homo sapiens

| Variant | abundance fitness |
| --- | --- |
| Y1A | 0.534 ± 0.26 |
